Laboratory results: the nanobody polyreactivity screen of Harvey et al. (2022)

Assay: yeast display, Sf9 membrane polyspecificity reagent, FACS + sequencing; frameworks hold sequencing errors
How it was run: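 Using colony PCR, genes from sorted yeast display clones were amplified, then sequenced on MiSeq at 2 × 250 and filtered by CDR length. The clones had been stained with 10% biotinylated, detergent-solubilized Sf9 membrane reagent for 1 hour at 4 °C and sorted by FACS into low and high (top ~1%) gates on anti-HA and streptavidin fluorescence. Polyreactivity labels come from the gate of origin.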

Row | Sequence | polyreactivity (PSR sort gate)
1 | QVQDVESGGGLVQAGGSLRLSCAASGRTIDPNAMGWYRQAPGKERELVAAITRTGVRTYYADSVKGRFTISRDNAKNTVYLQMNSLKPEDTAVYYCNRYGARSNDYWGQATQVTVSS | low polyreactivity
2 | QVQFVESGGGLVKAGGSLRLSCAASGYTFGRYAMGWYRQAPGKERELVAAITKSGGPTSYADSVKGRFTISRDNAKNTVYLQMNSLKPEDTAVYYCNKVLFQPYWVVYATGDYWGQGTQVTVSS | high polyreactivity
3 | QVQGVESGGGLVQAGGSLRLSCAAAGFTFGYYAMGWYRQAPGTERELVAGISWGGTRTYYADSVKGRFTISRDNAKNTVYLQLNSLKPEDTAVYYCAAESILGYDYWGQGTQVTVSS | high polyreactivity
4 | QVQHDESGGCLVQAGGSLRLSCAASGITFILYDMGWYREAPGKVRELVASITSGGSTDYADSVKGRFTISRDNAKNTVYLQMNSLKPEDTAVYYCAARYVYPYWYGDYYWGQGTQVTVSS | low polyreactivity
5 | QVQHEESAGGLVQAGGSLRLSCAASGSTIHPYSMGWSRQAPGKERELVAAITWGGGSTYYADSVKGRFTISRDNAKNTVYLQMNSLKPEDTAVYYCNSYTLYWPDYDYWGQGTQVTVSS | low polyreactivity
6 | QVQHEESAGGLVQAGGSLRVSCAASGIIFYDYAMGWYRQAAGKERELVAAITSVGSTNYADSVKGRFTISRDYAKNTVYLQMISLKPDDTAVYYCDAEVYVPDYFQHIFDVEYEYWGQGTQVTVSS | low polyreactivity
7 | QVQHEESGGGLVQAGGRLRLSCAASGRTFFSNAMGWYRQAPGKERELVAAISNGDNTYYADSVKGRFTISRDNAKNTVYLQMNSLKPEDTAVYYCATAYPEWAVWGYDYWGQGTQVTVSS | low polyreactivity
8 | QVQHEESGGGLVQAGGSLRLSCAASGITINFYDMGRYRQARGKERELGAAITASGGGSTYYADSVKGRFTISRDNAKNTVYLQMNSLKPEYTAVYYCNADSTGSFYTFDYWGQGTQVTVSS | low polyreactivity
9 | QVQHVASGGGLVQAGGSLRLSCAASGNIFRYYTMGWYRQAPGKERELVATISYADSVKGRFTISRDNAKNTVYLQMNSLKPEDTAVYYWNAVFAPWDKQDYPYDYDYWGQGTQVTVSS | low polyreactivity
10 | QVQHVDSAGGLVQAGGSLRLSCAASGSTFAPNAMGWYRQAPGKERELVAAISFRGVRTYYADSVKGRFTISRDNAKNTVYLQMNCLKPEDTAVYYCNKRVQRRNKPGAYNYEYWGQGTQVTVSS | high polyreactivity
11 | QVQHVDSGGGLVQAAGSLRLSCAASGRTFGVYAMGWYRQAPGKERELVATITSVDRTNYADSVKGRFTISRENAKNTVYLLMNSLKPDDTAVYYCADVGRGPRYFYWGQGTQVTVSS | high polyreactivity
12 | QVQHVDSGGGLVQTGGSLLLSCAAYGRTFCVNDMGWYRQAAGKEREFVAAITWRGDSTYYADSVKGRFTISRDNAKNTVYLQMNSLKPEDSAVYYCNADVISLYDHPDYLYLFDYWGQGTQVTVSS | low polyreactivity
13 | QVQHVDSVGGLVQAGRSLRLICAASGSTFTSYTKGWYRQAPLKERELVDRITRGGGSTYYADSVKGRFTISRDNAKNTVYLQMNSLKQEDTAVYYCAKHVVGSAYYSWGQGTQVTVSS | low polyreactivity
14 | QVQHVESAAGLVQAGGSLRLSCDPSGIIFGRYAMGLYRHAPGKEREFVAAITWSGGSTYYADSVKGRFTISRDNAKNTVYLQMNSLKPEDTAVYYCAADTWYRYDYWGQGTQVTVSS | low polyreactivity
15 | QVQHVESGAGLVQAGGSLRLSCAASGIILLENAIGCYRQQPGKERELVSGISSGGNTNYADSVKGRFTISRDNAKNTVYLQINSLKPEDTAVYYCNTDWYLPRYVLPGYFSGTEDYWGKGTQVTVSS | low polyreactivity
16 | QVQHVESGGALVQAGGSLRLSCAASGITFDYYVMGWYRTAPGKERELVAGISSGGSTYYADSVKGRFTISRDNAKNTVYLQMNSLKPEDTAVYYCNARRRRLVSVGYYYNYDYWGQGTQVTVSS | high polyreactivity

Row | Sequence | polyreactivity (PSR sort gate)
17 | QVQHVESGGCLVQAGASLRLSCDASGSIFRRNAMGWYRQAPGKERQLVDAITSYGGRTYYADSVKGRFTISRDNAKNTVYFQMNSLKPVDTAVYYCASRYPWGWAMNYWGQGTQVTVSS | high polyreactivity
18 | QVQHVESGGGIVQAGGSLRLICAASGFPYARYAMGWNRQAPGNERELVAAITSAGSTSYADSVKGRFTISRYNAKNTDYFHMNSLKPEDTAVYYCAAVQYNQAYHYWGQGTQVTVSS | high polyreactivity
19 | QVQHVESGGGIVQAGGSLRLSCAASGITFDEYAMGWYRQAPGKEWELVATITWSGGSTYYADSVKGRFTISRVNAKNTVDLKMNSLKPEDSAVYYCAARDSGRYDDFGYWGQGTQVTVSS | low polyreactivity
20 | QVQHVESGGGIVQAGGSLRLSCAASGSIFRNNTMGWYRQAPGKERELVAAISGRGTRTSYADSVKGRFTISRDNAKNTVYLQMNSLKPEDTAVYYCAARSWYLYYWGQGTQVTVSS | low polyreactivity
21 | QVQHVESGGGIVQAGGSLRLSCAASGSTIVDNYMGWYRQAPGKERELVAVINSGGSTYYADSVKGRFTISRDNAKNTGYLQMNSLKPEDTAVYYCAADDIPYGSVYTSIGLDYWGQGTQVTVSS | low polyreactivity
22 | QVQHVESGGGIVQAGGSLRLSCSASGSTFFYNTMGWYRHAPGKERELVAAISYRTGSTYYADSVKGRFTISRDNAKNSVYLQMNSLKTEDTAVYYCNARYPYRYGYWGQGTQVTVSS | high polyreactivity
23 | QVQHVESGGGLFQAGGSHRLSCAASGRTFSKNAMGWYRQAPGKERELVAAINRGGTTKYADSVKGRFTISRDNAKNTVYLQMNSQKPEDTTVYYCAVDRQRAGYPKQYDSWGQGTQVTVSS | low polyreactivity
24 | QVQHVESGGGLGQAGGILRLSCAGCGRTFVRYAMGWYRQAPGNERELVAAITRSASTYYADSVKGRFTISRDNAKKTVDLQMTSLKPEDTSVYYCNAVWSRYRDLDFWGQGTQVTVSS | high polyreactivity
25 | QVQHVESGGGLVQAGASLRLSCAASGFTIRSYVRGWYRQAPGKEREIVAAISYRGGGTNYADSVKGRFTISRDNAKNTVYLHMNSLKPEDTAVYYCNARSGSSKSGYYYWGQGTQVTVSS | high polyreactivity
26 | QVQHVESGGGLVQAGASLRLSCAASGLTFRSNAMGWYSQAPGKERELVAAISSSGGSTYYADSVKGRFTISRDNAQNTVYLQMNSLKPEDTAVYYCAAEDPGDQYDYWGQGTQVTVSS | high polyreactivity
27 | QVQHVESGGGLVQAGGILRLICPDSGFTIRHKAMGWYRQAPGKEREFVAAISWYDGSTYADSVKGRFTISRDNAKYTVYIQLNCLKPEDTAVYFCNADYPSYRYFTGRHYWGQGTQVTVSS | low polyreactivity
28 | QVQHVESGGGLVQAGGRLRLSCAASGSIFAWYARGWYIQAPGKEREVVADITHSGGSTYYADSLKGRFTISRDNAKNTVYLQMYSLKPEDTAVSYCVDYWYNDLQSGWEDDYWGQGTQVTVAS | low polyreactivity
29 | QVQHVESGGGLVQAGGRLRLSCAASGSTFDYYVMGWYRQAPGKEREMVAAISQNAGSTYYADSVKGRFTISRDNAKNTVYLQMNSLKPEDTAVYYCAAPDYRNGVRYPLDYWGQGTQVTVSS | low polyreactivity
30 | QVQHVESGGGLVQAGGSHRLSCAASGSTFTYYAMGWYRQAPGKERELVAAISRGGSTYYADSVKGRFTISRDNAKNTVYLKKYSLKPEDTAVYYCAAERGYKKWSRGYWGQGTLVTVSS | high polyreactivity
31 | QVQHVESGGGLVQAGGSLLLSCAASGSIFEINAMGWYRQAPGKERELVADIRRGDSTNYADSVKGRFTNSRDNAKNTVYLQMNSLKPEDTAVYYCAARWRRSKYGVYPQRPYDYWGQGTQVTVSS | high polyreactivity
32 | QVQHVESGGGLVQAGGSLLLSCAASGSTFGFYTMGWYRQAPGKERELVAAISWSTGRTYYADSVKGRFTISRDNAKNTVYLQMNSLKPEDTAVYYCNADGYPEQVYYYSAFQGMDYWGQGTQVTVSS | low polyreactivity
